Measurements from patent US6699969B1, “Assays for the detection of microtubule depolymerization inhibitors” (The Regents of the University of California, priority 1998, dated 2004).

Tests used:
[1] = ATPase assay (modified malachite green method); assay type: biochemical
Protocol: (§1) ATPase activity was measured by a modified malachite green method (Kodama et al. (1986) J. Biochem. 99: 1465-1472). ATPase reactions of 50-100 μL were carried out in a buffer previously used for measuring the ATPase activity of native katanin [20 mM K-HEPES pH 8.0, 25 mM K-Glutamate, 2 mM MgCl2, 10% glycerol (v/v), 0.02% Triton X-100 (w/v), 1 mg/ml BSA] (McNally and Vale (1993) Cell, 75: 419-429), except that soybean trypsin inhibitor (SBTI) was replaced by BSA as a carrier protein because SBTI increased background phosphate contamination. An ATP regenerating system consisting of 0.5-1.0 mM phospho-enol pyruvate and 2U pyruvate kinase was included to minimize the inhibition by ADP observed previously for native katanin (McNally and Vale (1993) Cell, 75; 419-429). Microtubules were prepared from bovine brain tubulin (Hyman el al. (1 990) Meth. Enzymol. 196: 303-319; Williams and Lee (1982) Meth Enzymol. 85B: 376-385). After assembly, microtubules were sedimented (230,000×g; 10 min), resuspended in ATPase buffer lacking BSA, and the polymers were resuspended by repeated passage through a 27 gauge needle. Microtubule concentration was determined by measuring the absorbance at 275 nm in 6M guanidine HCl by using a molecular mass of 110 kDa and an extinction coefficient of 1.03 ml*mg^−1*cm^−1 (Hackney (1988) Proc. Natl. Acad. Sci. USA, 85: 6314-6318). […]

[2] = tested on: Taxol-stabilized, rhodamine-labeled microtubules; test: Microscope-based microtubule severing assay; assay type: biochemical
Protocol: Microscope-based severing assays were performed using previously published procedures (McNally and Vale (1993) Cell, 75: 419-429), except that microtubules were immobilized by first perfusing flow cells with a bacterially expressed kinesin mutant that binds strongly to microtubules but is unable to hydrolyze ATP (K560, G234A mutant; R. Vale and E. Taylor, unpublished results). Assays were performed in 20 mM Hepes (pH 7.5), 2 mM MgCl2, 1 mM ATP with an oxygen scavenger system consisting of glucose oxidase (220 μg/ml), catalase (36 μg/ml), glucose (22.5 mM), and 2-mercaptoethanol (71.5 mM). Images were captured using a cooled, slow-scan CCD (Photometerics) and processed using Adobe Photoshop.

[3] = literature values; cited from earlier work
microtubules = test: DAPI fluorescence microtubule disassembly (severing) assay; assay type: biochemical, bovine; settings: 2 μM microtubules, FIG. 5C
Protocol: as §1, with “Microtubules were prepared from bovine brain tubulin (Hyman el al. (1 990) Meth. Enzymol. 196: 303-319; Williams and Lee (1982) Meth Enzymol. 85B: 376-385). After assembly, microtubules were sedimented (230,000×g; 10 min), resuspended in ATPase buffer lacking BSA, and the polymers were resuspended by repeated passage through a 27 gauge needle.” left out
DAPI severing assays were performed using conditions where the change in fluorescence intensity was linear with the amount of tubulin polymer added (Heusele et al. (1987) Eur. J. Biochem. 165: 613-620). […] The reaction volume was 80 μL, and. fluorescence intensity was measured by exciting at 370 nm and measuring the emission at 450 nm using a model 8100 fluorimeter. […]

B1: p60: S. purpuratus katanin 60 kDa subunit, 516 a.a. AAA ATPase (SEQ ID NO: 1), baculovirus-expressed with N-terminal His(6) tag (protein, listed as Strongylocentrotus purpuratus)
chain: MSVDEICENTKMGREYALLGNYETSLVYYQGVLQQIQKLLTSVHEPQRKHQWQTIRQELSQEYEHVKNITKTLNGFKSEPAAPEPAPNHGRAAPFSHHQHAAKPAAAEPARDPDVWPPPTPVDHRPSPPYQRAARKDPPRRSEPSKPANRAPGNDRGGRGPSDRRGDARSGGGGRGGARGSDKDKNRGGKSDKDKKAPSGEEGDEKKFDPAGYDKDLVENLERDIVQRNPNVHWADIAGLTEAKRLLEEAVVLPLWMPDYFKGIRRPWKGVLMVGPPGTGKTMLAKAVATECGTTFFNVSSASLTSKYHGESEKLVRLLFEMARFYAPSTIFIDEIDSICSKRGTGSEHEASRRVKSELLIQMDGVSGPSAGEESSKMVMVLAATNFPWDIDEALRRRLEKRIYIPLPEIDGREQLLRINLKEVPLADDIDLKSIAEKMDGYSGADITNVCRDASMMAMRRRIQGLRPEEIRHIPKEELNQPSTPADFLLALQKVSKSVGKEDLVKYMAWMEEFGSV
modifications: N-terminal His6 tag; katanin p60 subunit
Question: With B1 as the molecule, how does the “microtubule concentration at peak stimulation of ATP turnover” value [1] read?
Answer: ~2 μM tubulin

Question: What about the “time until microtubules were completely disassembled” value ([2]; 0.1 μM protein) of the same molecule?
Answer: 5 min

B2: p97: AAA ATPase cited for comparison (Peters et al. 1992) (protein, UniProt P23787 1-805, looked up)
Transitional endoplasmic …: MASGSDTKSDDLSTAILKQKSRPNRLIVDESINEDNSMVSLSQAKMDELQLFRGDTVLLKGKKRREAVCIVLSDDTCSDEKIRMNRVVRNNLRVRLGDVISIQPCPDVKYGKRVHVLPIDDTVEGITGNLFEVYLKPYFLEAYRPIRKGDIFLVRGGMRAVEFKVVETDPSPYCIVAPDTVIHCEGEPIKREDEEESLNEVGYDDIGGCRKQLAQIKEMVELPLRHPALFKAIGVKPPRGILLYGPPGTGKTLIARAVANETGAFFFLINGPEIMSKLAGESESNLRKAFEEAEKNAPAIIFIDELDAIAPKREKTHGEVERRIVSQLLTLMDGLKQRAHVIVMAATNRPNSIDPALRRFGRFDREVDIGIPDSTGRLEILQIHTKNMKLSDDVDLEQVANETHGHVGADLAALCSEAALQAIRKKMDLIDLEDETIDAEVMNSLAVTMDDFRWALSQSNPSALRETVVEVPQVTWEDIGGLEDVKRELQELVQYPVEHPDKFLKFGMTPSKGVLFYGPPGCGKTLLAKAIANECQANFISIKGPELLTMWFGESEANVREIFDKARQAAPCVLFFDELDSIAKARGGNIGDGGGAADRVINQILTEMDGMSIKKNVFIIGATNRPDIIDPAILRPGRLDQLIYIPLPDEKSRMAILKANLRKSPVAKDVDVDFLAKMTNGFSGADLTEICQRACKLAIRESIENEIRRERDRQTNPSAMEVEEDDPVPEIRRDHFEEAMRFARRSVSDNDIRKYEMFAQTLQQSRGFGSFRFPAGGQSGAGPSPGAGGGSGGGHFTEEDDDLYG
Question: With B2 as the molecule, how does the “ATPase activity of other AAA proteins” value [3] read?
Answer: 1 ATP/sec

B3: p80: S. purpuratus katanin 80 kDa subunit, 690 a.a. polypeptide with six WD40 repeats (SEQ ID NO: 2) (protein, listed as Strongylocentrotus purpuratus)
chain: MATKRAWKLQELVAHSSNVNCLALGPMSGRVMVTGGEDKKVNLWAVGKQNCIISLSGHTSPVDSVKFNSSEELVVAGSQSGTMKIYDLEPAKIVRTLTGHRNSIRCMDFHPFGEFVASGSTDTNVKLWDVRRKGCIYTYKGHSDQVNMIKFSPDGKWLVTASEDTTIKLWDLTMGKLFQEFKNHTGGVTGIEFHPNEFLLASGSSDRTVQFWDLETFQLVSSTSPGASAVRSISFHPDGSYLFCSSQDMLHAFGWEPIRCFDTFSVFWGKVADTVIASTQLIGASFNATNVSVYVADLSRMSTTGIAQEPQSQPSKTPSGGAEEVPSKPLTASGRKNFVRERPHTTSSKQRQPDVKSEPERQSPTQDEGVKDDDATDIKDPDSYAKIFSPKTRVDHSPERNAQPFPAPLDVPGAQEPEPFKHPPKPAAAAAVAPVSRAPAPSASDWQPAQANPAPNRVPAATKPVPAQEVAPSRKPDPISTIIPSDRNKPANLDMDAFLPPAHAQQAPRVNAPASRKQSDSERIEGLRKGHDSMCQVLSSRHRNLDVVRAIWTAGDAKTSVESVVNMKDQAILVDILNIMLLKKSLWNLDMCVVVLPRLKELLSSKYENYVHTSCACLKLILKNFTSLFNQNIKCPPSGIDITREERYNKCSKCYSYLIATRGYVEEKQHVSGKLGSSFRELHLLLDQLE
modifications: katanin p80 subunit
Question: What does the source list for B3?
Answer: ATPase activity ([1]; baculovirus-expressed subunit alone): no detectable ATPase activity; change in DAPI fluorescence (microtubules): did not cause a change in fluorescence; microtubule severing ([2]; concentrations 5-fold higher than those used for p60 (0.5 μM)): unable to sever microtubules
